One block for each sequence: values may come before it.
Experiments:
[1] = molecular target: HLA-B*35:01; experiment: IEDB peptide-MHC binding, purified MHC/competitive/radioactivity; filed as Kd, often an IC50 or EC50 that approximates it; ≥ and ≤ were set here for values at or beyond the usual limits of such assays
[2] = molecular target: HLA-B*53:01; experiment: as above
[3] = molecular target: HLA-B*54:01; experiment: as above
[4] = molecular target: HLA-B*07:02; experiment: as above
[5] = molecular target: HLA-B*51:01; experiment: as above
[6] = molecular target: HLA-A*02:01; experiment: IEDB peptide-MHC binding, purified MHC/competitive/fluorescence; filed as Kd, often an IC50 or EC50 that approximates it; ≥ and ≤ were set here for values at or beyond the usual limits of such assays
[7] = molecular target: HLA-A*30:01; experiment: IEDB peptide-MHC binding, purified MHC/competitive/radioactivity; filed as Kd, often an IC50 or EC50 that approximates it; ≥ and ≤ were set here for values at or beyond the usual limits of such assays
[8] = molecular target: HLA-A*24:02; experiment: IEDB peptide-MHC binding, purified MHC/competitive/fluorescence; ≥ and ≤ were set here for values at or beyond the usual limits of such assays
[9] = molecular target: HLA-A*01:01; experiment: IEDB peptide-MHC binding, purified MHC/competitive/radioactivity; filed as Kd, often an IC50 or EC50 that approximates it; ≥ and ≤ were set here for values at or beyond the usual limits of such assays
[10] = molecular target: HLA-A*26:01; experiment: as above; conditions: source organism: Dengue virus 4 Dominica/814669/1981
[11] = molecular target: HLA-A*03:01; experiment: as above
[12] = molecular target: HLA-A*31:01; experiment: as above; conditions: source organism: Vaccinia virus WR
[13] = molecular target: HLA-A*33:01; experiment: as above; conditions: source organism: Vaccinia virus WR
[14] = molecular target: HLA-A*11:01; experiment: as above; conditions: source organism: Vaccinia virus WR
[15] = molecular target: HLA-A*68:01; experiment: as above; conditions: source organism: Vaccinia virus WR
[16] = molecular target: HLA-A*02:01; experiment: IEDB peptide-MHC binding, purified MHC/competitive/fluorescence; ≥ and ≤ were set here for values at or beyond the usual limits of such assays
[17] = source organism: Mammarenavirus brazilense
[18] = source organism: Vaccinia virus WR
[19] = source organism: Triticum aestivum
[20] = source organism: SARS coronavirus Tor2
[21] = source organism: Mammarenavirus lassaense
[22] = source organism: Vaccinia virus Copenhagen
[23] = source organism: Zaire ebolavirus
[24] = source organism: Human alphaherpesvirus 2
[25] = source organism: Dengue virus 4 Philippines/H241/1956
[26] = source organism: Dengue virus 1 Brazil/97-11/1997
[27] = source organism: Mammarenavirus machupoense

Sequence: LPTSIVVPI
Kd [1, 17]: 6.09 nM
Kd [2, 17]: 7.51 nM
Kd [3, 17]: 17.7 nM
Kd [4, 17]: 124 nM
Kd [5, 17]: 75.8 nM

Sequence: CPKIFNNNY
Kd [1, 18]: 160 nM
Kd [2, 18]: 331 nM
Kd [3, 18]: 13000 nM
Kd [4, 18]: ≥ 72900 nM
Kd [5, 18]: ≥ 77500 nM

Sequence: YLLEMLWRL
Kd ([6]; source organism: Human herpesvirus 4 strain B95-8): 4.5 nM

Kd [1, 19]: 66.8 nM
Kd [2, 19]: 7550 nM
Kd [3, 19]: ≥ 78100 nM
Kd [4, 19]: ≥ 77500 nM
Kd [5, 19]: ≥ 43500 nM
Sequence: QPFPSQQPY

Sequence: TPNYMKLLV
Kd [1, 18]: 8.41 nM
Kd [3, 18]: 30.7 nM
Kd [4, 18]: 51.3 nM
Kd [5, 18]: ≥ 77500 nM

Sequence: RPNHTIKGSF
Kd [1, 20]: ≥ 69900 nM
Kd [2, 20]: ≥ 69900 nM
Kd [3, 20]: ≥ 69900 nM
Kd [4, 20]: 57.7 nM
Kd [5, 20]: ≥ 69600 nM

Sequence: CPNCYDSVM
Kd [1, 21]: 7.87 nM
Kd [2, 21]: 79.5 nM
Kd [3, 21]: 4500 nM
Kd [4, 21]: 205 nM
Kd [5, 21]: 5710 nM

Kd [1, 19]: ≥ 23700 nM
Kd [2, 19]: ≥ 36600 nM
Kd [3, 19]: 12100 nM
Kd [4, 19]: ≥ 77500 nM
Kd [5, 19]: 4830 nM
Sequence: QPQEQVPLV

Sequence: RAKSPTRQS
Kd [7, 18]: 260 nM

Sequence: KLIIDREVV
Kd [6, 18]: 1790 nM
IC50 [8, 22]: ≥ 137000 nM

Kd ([9]; source organism: Homo sapiens): 198 nM
Sequence: FLGGNEVGKTY

Sequence: SPSGVYQCAM
Kd [1, 20]: 26.3 nM
Kd [2, 20]: 748 nM
Kd [3, 20]: 2810 nM
Kd [4, 20]: 6.09 nM
Kd [5, 20]: 1070 nM

Sequence: SPMLYQLLEA
Kd [1, 18]: 143 nM
Kd [2, 18]: 228 nM
Kd [3, 18]: 8.77 nM
Kd [4, 18]: 94 nM
Kd [5, 18]: ≥ 69600 nM

Sequence: SFFVWVIIL
IC50 ([8]; source organism: Sudan ebolavirus): ≥ 72500 nM

Sequence: DTVTYKCPL
Kd [10]: 1260 nM

Sequence: RDGVKRLEE
IC50 [8, 23]: ≥ 89800 nM

Sequence: GPHETITAL
Kd [1, 24]: 797 nM
Kd [2, 24]: 3350 nM
Kd [3, 24]: 4850 nM
Kd [4, 24]: 1.4 nM
Kd [5, 24]: ≥ 77500 nM

Sequence: YHKILTAGL
IC50 [8, 23]: 7410 nM

Sequence: ITFLRVLSIP
Kd [7, 25]: 828 nM

Sequence: RCLKPVILK
Kd [7, 26]: 220 nM
Kd [11, 26]: 156 nM

Sequence: KKKTWLVHK
Kd [7, 25]: 470 nM

Sequence: MLNNSLYYM
Kd [1, 27]: 8710 nM
Kd [2, 27]: 9770 nM
Kd [3, 27]: ≥ 36700 nM
Kd [4, 27]: ≥ 77400 nM
Kd [5, 27]: ≥ 36700 nM

Sequence: TFRERYSYK
Kd [12]: 14.6 nM
Kd [13]: 28.8 nM
Kd [7, 18]: 0.885 nM
Kd [14]: 43.7 nM
Kd [15]: 127 nM
Kd [11, 18]: 73.6 nM

Sequence: SPMVIATTDM
Kd [1, 18]: 66.6 nM
Kd [2, 18]: 747 nM
Kd [3, 18]: 1040 nM
Kd [4, 18]: 21.6 nM
Kd [5, 18]: ≥ 52700 nM

Sequence: LPFYSNVTGF
Kd [1, 20]: 11.5 nM
Kd [2, 20]: 79.8 nM
Kd [3, 20]: 132 nM
Kd [4, 20]: 563 nM
Kd [5, 20]: 861 nM

Sequence: NSEQGGKAY
Kd [9, 26]: 482 nM

Sequence: ICQLIIQAF
IC50 [8, 23]: 446 nM

Kd [1, 19]: ≥ 63700 nM
Kd [2, 19]: ≥ 63700 nM
Kd [3, 19]: ≥ 63700 nM
Kd [4, 19]: ≥ 64000 nM
Kd [5, 19]: 14100 nM
Sequence: QPQQLPQFEEI

Sequence: STSSSYLYA
Kd [7, 22]: 13.3 nM

Sequence: QDGLICGLR
IC50 [16, 23]: 13300 nM
IC50 [8, 23]: 428 nM

Sequence: SINVEYRFL
IC50 [16, 18]: 27200 nM
IC50 [8, 18]: 27700 nM

— the Immune Epitope Database (IEDB)
